# T1: GST-HSD17B7 fusion protein (human, UniProt P56937-1 1-341)
# T1 construct: HSD17B7 (17β-hydroxysteroid dehydrogenase type 7), human, full-length cDNA amplified from HEK293T cDNA; 341 aa by the domain limits printed (1-229, 230-250, 251-341); also called 17β-Hydroxysteroid dehydrogenase type 7
# T1 sequence (looked up): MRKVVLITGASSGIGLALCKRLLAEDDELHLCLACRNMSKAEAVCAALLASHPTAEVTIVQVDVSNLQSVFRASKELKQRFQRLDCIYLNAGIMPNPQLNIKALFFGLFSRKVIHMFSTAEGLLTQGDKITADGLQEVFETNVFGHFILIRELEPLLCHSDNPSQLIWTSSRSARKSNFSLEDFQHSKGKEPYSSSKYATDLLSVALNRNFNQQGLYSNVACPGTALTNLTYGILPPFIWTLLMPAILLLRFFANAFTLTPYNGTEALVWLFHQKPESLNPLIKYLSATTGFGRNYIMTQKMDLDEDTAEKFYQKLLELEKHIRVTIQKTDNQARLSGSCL
# B1: RER1-His (natural protein, human (cDNA from HEK293T), UniProt O15258 1-196, looked up)
# chain: MSEGDSVGESVHGKPSVVYRFFTRLGQIYQSWLDKSTPYTAVRWVVTLGLSFVYMIRVYLLQGWYIVTYALGIYHLNLFIAFLSPKVDPSLMEDSDDGPSLPTKQNEEFRPFIRRLPEFKFWHAATKGILVAMVCTFFDAFNVPVFWPILVMYFIMLFCITMKRQIKHMIKYRYIPFTHGKRRYRGKEDAGKAFAS
# notes: RER1, full-length cDNA amplified from HEK293T cDNA; The legend prints RER1-His, the methods His-RER1; the pET-23b vector would add a C-terminal His tag (surmised); Detected by immunoblot of the His tag; also called His-RER1; ER retention receptor RER1
# Target: T1, GST-HSD17B7 fusion protein
# Assay: pull-down; GST and GST-HSD17B7 immobilised on GSH resin, incubated with purified His-RER1 overnight at 4°C, washed with 0.3% PBST; Coomassie staining and western blot
# Conditions: both partners purified
binder,measurement,value
B1,binding result,binds

# — article PMC13233068, “HSD17B7 is required for the function of sensory hair cells by regulating cholesterol synthesis” (eLife, 2026)
